Target: the molecule itself
Assay: SDS-PAGE and Western blot

B1: His-tagged aquaporin-9 (natural protein, UniProt P56627 1-295, looked up)
chain: MPSEKDGAKKSLMQRLALKSRIAKETLSEFLGTFIMIVLGCSSIAQAVLSRERFGGIITINIGFASAVVMALYVTFGISGGHINPAVSFAMCAFGRMEWFKFPFYVGAQFLGAFVGAATVFGIYYDGLMAFAGGKLLVVGENATAFIFATYPAPFISTPGAFVDQVVSTMFLLLIVFAMFDSRNLGVPRGLEPVVIGLLIIVLSCSLGLNSGCAMNPARDLSPRLFTALAGWGFEVFTVGNNFWWIPVVGPMIGAFLGGLIYILFIQMHHSKLDPDMKAEPSENNLEKHELSVIM
modifications: unglycosylated (~32 kDa) and glycosylated (~35 kDa) forms
stoichiometry N: 2

Source: paper PMC2564605 (Journal of molecular biology, 2008)
